Results from PMC4717663 (2014).

Target: pro-TGF-β1 (Homo sapiens, UniProt P01137)
Sequence (P01137 30-278, chain 1 of 2): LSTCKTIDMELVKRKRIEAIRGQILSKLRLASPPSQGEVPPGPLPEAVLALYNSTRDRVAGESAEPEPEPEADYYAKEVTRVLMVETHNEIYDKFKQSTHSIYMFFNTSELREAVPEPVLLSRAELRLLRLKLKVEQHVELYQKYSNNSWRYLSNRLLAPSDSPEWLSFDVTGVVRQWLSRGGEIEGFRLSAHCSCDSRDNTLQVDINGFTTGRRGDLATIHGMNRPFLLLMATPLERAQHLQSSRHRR
Sequence (P01137 279-390, chain 2 of 2): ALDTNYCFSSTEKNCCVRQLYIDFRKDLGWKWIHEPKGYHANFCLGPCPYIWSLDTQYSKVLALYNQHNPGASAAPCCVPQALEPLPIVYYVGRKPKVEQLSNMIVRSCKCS

Kd: ~10 nM
B1: integrin αVβ6 (protein)
chain 1: FNLDVDSPAEYSGPEGSYFGFAVDFFVPSASSRMFLLVGAPKANTTQPGIVEGGQVLKCDWSSTRRCQPIEFDATGNRDYAKDDPLEFKSHQWFGASVRSKQDKILACAPLYHWRTEMKQEREPVGTCFLQDGTKTVEYAPCRSQDIDADGQGFCQGGFSIDFTKADRVLLGGPGSFYWQGQLISDQVAEIVSKYDPNVYSIKYNNQLATRTAQAIFDDSYLGYSVAVGDFNGDGIDDFVSGVPRAARTLGMVYIYDGKNMSSLYNFTGEQMAAYFGFSVAATDINGDDYADVFIGAPLFMDRGSDGKLQEVGQVSVSLQRASGDFQTTKLNGFEVFARFGSAIAPLGDLDQDGFNDIAIAAPYGGEDKKGIVYIFNGRSTGLNAVPSQILEGQWAARSMPPSFGYSMKGATDIDKNGYPDLIVGAFGVDRAILYRARPVITVNAGLEVYPSILNQDNKTCSLPGTALKVSCFNVRFCLKADGKGVLPRKLNFQVELLLDKLKQKGAIRRALFLYSRSPSHSKNMTISRGGLMQCEELIAYLRDESEFRDKLTPITIFMEYRLDYRTAADTTGLQPILNQFTPANISRQAHILLDCGEDNVCKPKLEVSVDSDQKKIYIGDDNPLTLIVKAQNQGEGAYEAELIVSIPLQADFIGVVRNNEALARLSCAFKTENQTRQVVCDLGNPMKAGTQLLAGLRFSVHQQSEMDTSVKFDLQIQSSNLFDKVSPVVSHKVDLAVLAAVEIRGVSSPDHVFLPIPNWEHKENPETEEDVGPVVQHIYELRNNGPSSFSKAMLHLQWPYKYNNNTLLYILHYDIDGPMNCTSDMEINPLRIKISSLQTTEKNDTVAGQGERDHLITKRDLALSEGDIHTLGCGVAQCLKIVCQVGRLDRGKSAILYVKSLLWTETFMNKENQNHSYSLKSSASFNVIEFPYKNLPIEDITNSTLVTTNVTWGIQPAPMPV
chain 2: GCALGGAETCEDCLLIGPQCAWCAQENFTHPSGVGERCDTPANLLAKGCQLNFIENPVSQVEILKNKPLSVGRQKNSSDIVQIAPQSLILKLRPGGAQTLQVHVRQTEDYPVDLYYLMDLSASMDDDLNTIKELGSRLSKEMSKLTSNFRLGFGSFVEKPVSPFVKTTPEEIANPCSSIPYFCLPTFGFKHILPLTNDAERFNEIVKNQKISANIDTPEGGFDAIMQAAVCKEKIGWRNDSLHLLVFVSDADSHFGMDSKLAGIVIPNDGLCHLDSKNEYSMSTVLEYPTIGQLIDKLVQNNVLLIFAVTQEQVHLYENYAKLIPGATVGLLQKDSGNILQLIISAYEELRSEVELEVLGDTEGLNLSFTAICNNGTLFQHQKKCSHMKVGDTASFSVTVNIPHCERRSRHIIIKPVGLGDALELLVSPECNCDCQKEVEVNSSKCHHGNGSFQCGVCACHPGHMGPRCECGEDMLSTDSCKEAPDHPSCSGRGDCYCGQCICHLSPYGNIYGPYCQCDNFSCVRHKGLLCGGNGDCDCGECVCRSGWTGEYCNCTTSTDSCVSEDGVLCSGRGDCVCGKCVCTNPGASGPTCERCPTCGDPCNSKRSCIECHLSAAGQAREECVDKCKLAGATISEEEDFSKDGSVSCSLQGENECLITFLITTDNEGKTIIHSINEKDCPKPPNIP
